# Source: the supplement of paper PMC10567573
# B1: ZNF649 (parent)
# chain: DECEKAYFYMSCLVKHKRIHSREK
# Variants of: B1
# Experiment: protein stability index of a GFP-peptide fusion (GPS, HEK-293T) (PSI 1-6); higher = more stable
# Conditions: c terminus: a fixed tail appended
# 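Also: lentivirally expressed fusions sorted by FACS into six bins by GFP to DsRed ratio, PSI derived from sequencing read proportions per bin multiplied by bin number.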
row,Variant,protein stability index
1,DTCEKAYFYMSCLVKHKRIHSREK [E2T],3.17
2,DVCEKAYFYMSCLVKHKRIHSREK [E2V],1.57
3,DYCEKAYFYMSCLVKHKRIHSREK [E2Y],4.44
4,DECEKAPFYMSCLVKHKRIHSREK [Y7P],3.54
5,DECEKADFYMSCLVKHKRIHSREK [Y7D],4.07
6,DECEKAAFYMSCLVKHKRIHSREK [Y7A],3.53
7,DECEKAQFYMSCLVKHKRIHSREK [Y7Q],3.99
8,DECEKAKFYMSCLVKHKRIHSREK [Y7K],3.57
9,DECEKAEFYMSCLVKHKRIHSREK [Y7E],3.7
10,DECEKAFFYMSCLVKHKRIHSREK [Y7F],2.88
11,DECEKALFYMSCLVKHKRIHSREK [Y7L],2.26
12,DECEKANFYMSCLVKHKRIHSREK [Y7N],3.61
13,DECEKARFYMSCLVKHKRIHSREK [Y7R],3.55
14,DECEKAIFYMSCLVKHKRIHSREK [Y7I],2.23
15,DECEKAGFYMSCLVKHKRIHSREK [Y7G],3.38
16,DECEKAHFYMSCLVKHKRIHSREK [Y7H],3.35
17,DECEKAMFYMSCLVKHKRIHSREK [Y7M],2.19
18,DECEKACFYMSCLVKHKRIHSREK [Y7C],3.25
19,DECEKHYFYMSCLVKHKRIHSREK [A6H],2.58
20,DECEKNYFYMSCLVKHKRIHSREK [A6N],2.65
21,DECEKWYFYMSCLVKHKRIHSREK [A6W],2.03
22,DECEKFYFYMSCLVKHKRIHSREK [A6F],1.64
23,DECEKVYFYMSCLVKHKRIHSREK [A6V],1.96
24,DECEKQYFYMSCLVKHKRIHSREK [A6Q],3.02

row,Variant,protein stability index
1,DECEKTYFYMSCLVKHKRIHSREK [A6T],2.55
2,DECEKDYFYMSCLVKHKRIHSREK [A6D],3.52
3,DECEKCYFYMSCLVKHKRIHSREK [A6C],2.08
4,DECEKGYFYMSCLVKHKRIHSREK [A6G],2.75
5,DECEKRYFYMSCLVKHKRIHSREK [A6R],2.35
6,DECEKEYFYMSCLVKHKRIHSREK [A6E],3.01
7,DECEKMYFYMSCLVKHKRIHSREK [A6M],1.9
8,DECEKSYFYMSCLVKHKRIHSREK [A6S],3.04
9,DECEKLYFYMSCLVKHKRIHSREK [A6L],2.08
10,DECEKYYFYMSCLVKHKRIHSREK [A6Y],1.76
11,DECEKKYFYMSCLVKHKRIHSREK [A6K],2.56
12,DECEKPYFYMSCLVKHKRIHSREK [A6P],2.79
13,DECEKIYFYMSCLVKHKRIHSREK [A6I],1.89
14,DEPEKAYFYMSCLVKHKRIHSREK [C3P],2.77
15,DESEKAYFYMSCLVKHKRIHSREK [C3S],2.53
16,DENEKAYFYMSCLVKHKRIHSREK [C3N],2.64
17,DEWEKAYFYMSCLVKHKRIHSREK [C3W],1.97
18,DEVEKAYFYMSCLVKHKRIHSREK [C3V],2.55
19,DEGEKAYFYMSCLVKHKRIHSREK [C3G],2.92
20,DELEKAYFYMSCLVKHKRIHSREK [C3L],1.8
21,DEKEKAYFYMSCLVKHKRIHSREK [C3K],2.88
22,DEFEKAYFYMSCLVKHKRIHSREK [C3F],1.91
23,DEMEKAYFYMSCLVKHKRIHSREK [C3M],2.4
24,DEREKAYFYMSCLVKHKRIHSREK [C3R],2.33

row,Variant,protein stability index
1,DEYEKAYFYMSCLVKHKRIHSREK [C3Y],2.67
2,DETEKAYFYMSCLVKHKRIHSREK [C3T],2.9
3,DEAEKAYFYMSCLVKHKRIHSREK [C3A],3.06
4,DEHEKAYFYMSCLVKHKRIHSREK [C3H],2.35
5,DEQEKAYFYMSCLVKHKRIHSREK [C3Q],3.11
6,DEEEKAYFYMSCLVKHKRIHSREK [C3E],3.97
7,DEDEKAYFYMSCLVKHKRIHSREK [C3D],2.98
8,DEIEKAYFYMSCLVKHKRIHSREK [C3I],1.81
9,DECHKAYFYMSCLVKHKRIHSREK [E4H],2.26
10,DECWKAYFYMSCLVKHKRIHSREK [E4W],1.99
11,DECYKAYFYMSCLVKHKRIHSREK [E4Y],2.01
12,DECMKAYFYMSCLVKHKRIHSREK [E4M],1.44
13,DECQKAYFYMSCLVKHKRIHSREK [E4Q],2.34
14,DECNKAYFYMSCLVKHKRIHSREK [E4N],2
15,DECPKAYFYMSCLVKHKRIHSREK [E4P],2.45
16,DECFKAYFYMSCLVKHKRIHSREK [E4F],1.92
17,DECLKAYFYMSCLVKHKRIHSREK [E4L],2.18
18,DECIKAYFYMSCLVKHKRIHSREK [E4I],2.17
19,DECGKAYFYMSCLVKHKRIHSREK [E4G],1.76
20,DECAKAYFYMSCLVKHKRIHSREK [E4A],1.62
21,DECRKAYFYMSCLVKHKRIHSREK [E4R],2.33
22,DECCKAYFYMSCLVKHKRIHSREK [E4C],2.01
23,DECVKAYFYMSCLVKHKRIHSREK [E4V],1.79
24,DECKKAYFYMSCLVKHKRIHSREK [E4K],1.66

row,Variant,protein stability index
1,DECTKAYFYMSCLVKHKRIHSREK [E4T],2.88
2,DECDKAYFYMSCLVKHKRIHSREK [E4D],2.83
3,DECSKAYFYMSCLVKHKRIHSREK [E4S],2.48
4,DECENAYFYMSCLVKHKRIHSREK [K5N],2.84
5,DECEMAYFYMSCLVKHKRIHSREK [K5M],2.34
6,DECESAYFYMSCLVKHKRIHSREK [K5S],2.44
7,DECEFAYFYMSCLVKHKRIHSREK [K5F],1.67
8,DECEWAYFYMSCLVKHKRIHSREK [K5W],2.82
9,DECEDAYFYMSCLVKHKRIHSREK [K5D],3.36
10,DECELAYFYMSCLVKHKRIHSREK [K5L],2.61
11,DECEAAYFYMSCLVKHKRIHSREK [K5A],2.71
12,DECEYAYFYMSCLVKHKRIHSREK [K5Y],1.82
13,DECEPAYFYMSCLVKHKRIHSREK [K5P],3.51
14,DECETAYFYMSCLVKHKRIHSREK [K5T],2.64
15,DECEVAYFYMSCLVKHKRIHSREK [K5V],1.81
16,DECEQAYFYMSCLVKHKRIHSREK [K5Q],3.08
17,DECECAYFYMSCLVKHKRIHSREK [K5C],2.52
18,DECEEAYFYMSCLVKHKRIHSREK [K5E],2.95
19,DECEHAYFYMSCLVKHKRIHSREK [K5H],2.79
20,DECERAYFYMSCLVKHKRIHSREK [K5R],2.5
21,DECEGAYFYMSCLVKHKRIHSREK [K5G],3.13
22,DECEIAYFYMSCLVKHKRIHSREK [K5I],1.79
